# Source: patent US20200157212A1 (Pfizer, published 2020)
# T1: Human ROBO2 Ig1-Ig2-His (human, UniProt Q9HCK4 31-220)
# T1 construct: the His tag is named only in the SPR paragraphs; the Octet and ELISA paragraphs print 'ROBO2 Ig1-Ig2' without a tag; also called ROBO2 Ig1-2; Human ROBO2 Ig 1,2
# T1 sequence: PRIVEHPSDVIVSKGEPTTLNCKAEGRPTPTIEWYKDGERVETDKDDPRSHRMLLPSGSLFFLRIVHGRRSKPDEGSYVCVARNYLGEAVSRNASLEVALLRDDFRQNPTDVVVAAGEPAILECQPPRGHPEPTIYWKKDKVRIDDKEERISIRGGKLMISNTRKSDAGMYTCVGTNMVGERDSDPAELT
# T2: Terbium (Tb) labeled-SNAP tagged ROBO2 expressed on HEK293 cells (Homo sapiens (Human), UniProt Q9HCK4 22-1378, terbium label on the SNAP tag)
# T2 construct: also called Tb-labeled ROBO2 cells; ROBO2 expressing cells; not shown: SNAP tag
# T2 sequence: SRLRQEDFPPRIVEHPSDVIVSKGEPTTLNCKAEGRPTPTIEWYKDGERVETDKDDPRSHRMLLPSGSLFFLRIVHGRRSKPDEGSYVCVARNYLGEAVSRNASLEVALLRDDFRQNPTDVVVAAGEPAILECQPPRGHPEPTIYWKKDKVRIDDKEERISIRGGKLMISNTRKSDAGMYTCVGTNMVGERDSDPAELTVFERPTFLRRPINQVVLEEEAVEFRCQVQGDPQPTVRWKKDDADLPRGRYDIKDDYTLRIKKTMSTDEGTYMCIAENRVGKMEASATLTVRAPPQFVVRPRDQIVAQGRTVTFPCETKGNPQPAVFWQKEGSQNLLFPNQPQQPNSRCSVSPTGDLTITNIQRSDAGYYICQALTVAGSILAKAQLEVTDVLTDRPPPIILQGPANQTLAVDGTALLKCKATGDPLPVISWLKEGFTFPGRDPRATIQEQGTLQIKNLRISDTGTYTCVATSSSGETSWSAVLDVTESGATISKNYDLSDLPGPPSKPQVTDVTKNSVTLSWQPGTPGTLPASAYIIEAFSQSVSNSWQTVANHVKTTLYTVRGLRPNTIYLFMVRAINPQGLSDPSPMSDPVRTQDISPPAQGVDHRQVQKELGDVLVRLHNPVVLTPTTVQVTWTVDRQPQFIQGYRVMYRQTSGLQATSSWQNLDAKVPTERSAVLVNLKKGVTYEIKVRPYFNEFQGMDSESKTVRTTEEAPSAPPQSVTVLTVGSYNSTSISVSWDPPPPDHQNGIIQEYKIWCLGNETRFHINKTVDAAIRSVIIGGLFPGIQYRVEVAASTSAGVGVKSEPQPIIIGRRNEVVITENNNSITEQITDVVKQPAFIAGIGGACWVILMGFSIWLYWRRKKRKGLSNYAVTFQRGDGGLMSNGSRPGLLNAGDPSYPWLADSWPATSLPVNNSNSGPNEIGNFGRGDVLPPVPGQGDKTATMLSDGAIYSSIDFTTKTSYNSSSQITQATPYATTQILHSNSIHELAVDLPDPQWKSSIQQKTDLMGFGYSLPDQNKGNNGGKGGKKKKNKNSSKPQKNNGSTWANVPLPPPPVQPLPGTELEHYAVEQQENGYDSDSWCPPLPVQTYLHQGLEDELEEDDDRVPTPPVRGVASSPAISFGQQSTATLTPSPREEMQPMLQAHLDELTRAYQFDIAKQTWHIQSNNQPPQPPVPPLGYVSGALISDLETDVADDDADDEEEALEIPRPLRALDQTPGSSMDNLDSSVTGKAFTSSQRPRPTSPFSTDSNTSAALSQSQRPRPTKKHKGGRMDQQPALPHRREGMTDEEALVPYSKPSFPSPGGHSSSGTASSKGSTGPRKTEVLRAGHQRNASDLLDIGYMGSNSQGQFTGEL
# Legend:
# Human ROBO2 Ig1-Ig2-His = molecular target: T1, Human ROBO2 Ig1-Ig2-His; assay: SPR, antibody on CM5 chip, ROBO2 Ig1-Ig2-His
# Experimental: Based upon several criteria, Abcs25 and Abcs35 were selected for further characterization. Using flow cytometry, improvement in the binding EC₅₀ to human ROBO2 relative to the parental 93H2 was evaluated. Starting at 6.7 nM, 11-point, 3-fold dilution series were made for each antibody and used to stain HEK293 overexpressing human ROBO2 as described above for the ROBO2 fold selectivity (Example 2). […] In addition to measuring improved binding to human ROBO2, it was important to ensure that high affinity binding to both cynomolgus monkey ROBO2 and rat ROBO2 was maintained. Using HEK293 cells overexpressing either cynomolgus monkey ROBO2 or rat ROBO2, the relative dose-dependent binding of 93H2, Abcs25 and Abcs35 was evaluated as described above. High affinity binding to both cynomolgus monkey and rat ROBO2 was maintained in Abcs25 and Abcs35 (Table 4). […] Briefly, Abcs35 was immobilized to 300 resonance units (RU) on a CM5 chip. Association of ROBO2 Ig1-Ig2-His (ROBO2) was measured over 5 minutes and dissociation was followed for a period of 10 minutes.
# Affinity was measured by standard SPR methods as described in Example 3. Briefly, antibodies were immobilized to a specific measure of resonance units (RU) on a CM5 chip. Association of ROBO2 Ig1-Ig2-His (ROBO2) and dissociation will be followed for a period of time.
# [1] = molecular target: T2, Terbium (Tb) labeled-SNAP tagged ROBO2 …; assay: HTRF competition, competitor d2-SLIT2-N, ROBO2 HEK293 cells
# Experimental: A ROBO2-SLIT2-N homogenous time resolved fluorescence (HTRF) assay was used to identify antibodies that were capable of blocking SLIT2-N binding to ROBO2. In this assay, terbium (Tb) labeled-SNAP tagged ROBO2 expressing HEK293 cells were incubated with 5 nM d2-labeled SLIT-2N in the presence of 1 nM anti-ROBO2 antibodies for 1 hour. After incubation, fluorescence at 665 nm and 620 nm was measured on an Envision multilabel plate reader. […] Maximal signal was defined as the HTRF ratio of Tb-labeled ROBO2 cells with d2-labeled SLIT2-N in the absence of antibody, the minimum signal was defined as the HTRF ratio of Tb-labeled ROBO2 expressing HEK293 cells only. One nanomolar (nM) parental antibody, 93H2, was unable to block the HTRF assay, therefore this concentration was selected to identify clones with a higher affinity than 93H2 (Table 2, HTRF Ratio column). […] Antibodies derived from chain (Abcs series) or CDR shuffling (CTIR-2 series) were evaluated in 11-point, 5-fold dilution series with a top concentration of 1500 nM (Table 2 HTRF IC₅₀).
# Neutralization of SLIT2-N binding to ROBO2 was assessed ROBO2:SLIT2-N homogenous time resolved fluorescence (HTRF) assay as described in Example 2. Briefly the HTRF assay was performed as follows: terbium (Tb) labeled-SNAP tagged ROBO2 expressing HEK293 cells were incubated with d2-labeled SLIT-2N in the presence of anti-ROBO2 antibodies for 1 hour. After incubation, fluorescence at 665 nm and 620 nm was measured on an Envision multi-label plate reader. […] Maximal signal was defined as the HTRF ratio of Tb-labeled ROBO2 cells with d2-labeled SLIT2-N in the absence of antibody, the minimum signal was defined as the HTRF ratio of Tb-labeled ROBO2 expressing HEK293 cells only.
Binder,Kd (Human ROBO2 Ig1-Ig2-His) [nM],IC50 [1] [nM]
"Abcs35-F (antibody, human IgG1, kappa, germlined variant of Abcs35) heavy: QVQLVQSGAEVKKPGASVKVSCKASGYTFTGYYMHWVRQAPGQGLEWMGWINPKNGDTEFPQKFQGRVTMTRDTSISTAYMDLSRLRSDDTAVYYCARESGDDAFDIWGQGTMVTVSSASTKGPSVFPLAPSSKSTSGGTAALGCLVKDYFPEPVTVSWNSGALTSGVHTFPAVLQSSGLYSLSSVVTVPSSSLGTQTYICNVNHKPSNTKVDKKVEPKSCDKTHTCPPCPAPEAAGAPSVFLFPPKPKDTLMISRTPEVTCVVVDVSHEDPEVKFNWYVDGVEVHNAKTKPREEQYNSTYRVVSVLTVLHQDWLNGKEYKCKVSNKALPAPIEKTISKAKGQPREPQVYTLPPSREEMTKNQVSLTCLVKGFYPSDIAVEWESNGQPENNYKTTPPVLDSDGSFFLYSKLTVDKSRWQQGNVFSCSVMHEALHNHYTQKSLSLSPGK light: DIVMTQSPSSLSASVGDRVTITCRASQSISSYLNWYQQKPGKAPKLLIYAASSLQSGVPSRFSGSGSGTDFTLTISSLQPEDFATYYCQQSVGLFFGGGTKVEIKRTVAAPSVFIFPPSDEQLKSGTASVVCLLNNFYPREAKVQWKVDNALQSGNSQESVTEQDSKDSTYSLSSTLTLSKADYEKHKVYACEVTHQGLSSPVTKSFNRGEC",0.194,0.0766
"Abcs35-I (antibody, human IgG1, kappa, germlined variant of Abcs35) heavy: EVQLVQSGAEVKKPGASVKVSCKASGYTFTGYYMHWVRQAPGQGLEWMGWINPKNGDTEFPQKFQGRVTMTRDTSISTAYMDLSRLRSDDTAVYYCARESGDDAFDIWGQGTMVTVSSASTKGPSVFPLAPSSKSTSGGTAALGCLVKDYFPEPVTVSWNSGALTSGVHTFPAVLQSSGLYSLSSVVTVPSSSLGTQTYICNVNHKPSNTKVDKKVEPKSCDKTHTCPPCPAPEAAGAPSVFLFPPKPKDTLMISRTPEVTCVVVDVSHEDPEVKFNWYVDGVEVHNAKTKPREEQYNSTYRVVSVLTVLHQDWLNGKEYKCKVSNKALPAPIEKTISKAKGQPREPQVYTLPPSREEMTKNQVSLTCLVKGFYPSDIAVEWESNGQPENNYKTTPPVLDSDGSFFLYSKLTVDKSRWQQGNVFSCSVMHEALHNHYTQKSLSLSPGK light: not shown",0.145,0.0745
"Abcs35-H (antibody, human IgG1, kappa, germlined variant of Abcs35) heavy: QVQLVQSGAEVKKPGASVKVSCKASGYTFTGYYMHWVRQAPGQGLEWMGWINPKNGDTEFPQKFQGRVTMTRDTSISTAYMELSRLRSDDTAVYYCARESGDDAFDIWGQGTMVTVSSASTKGPSVFPLAPSSKSTSGGTAALGCLVKDYFPEPVTVSWNSGALTSGVHTFPAVLQSSGLYSLSSVVTVPSSSLGTQTYICNVNHKPSNTKVDKKVEPKSCDKTHTCPPCPAPEAAGAPSVFLFPPKPKDTLMISRTPEVTCVVVDVSHEDPEVKFNWYVDGVEVHNAKTKPREEQYNSTYRVVSVLTVLHQDWLNGKEYKCKVSNKALPAPIEKTISKAKGQPREPQVYTLPPSREEMTKNQVSLTCLVKGFYPSDIAVEWESNGQPENNYKTTPPVLDSDGSFFLYSKLTVDKSRWQQGNVFSCSVMHEALHNHYTQKSLSLSPGK light: DIVMTQSPSSLSASVGDRVTITCRASQSISSYLNWYQQKPGKAPKLLIYAASSLQSGVPSRFSGSGSGTDFTLTISSLQPEDFATYYCQQSVGLFFGGGTKVEIKRTVAAPSVFIFPPSDEQLKSGTASVVCLLNNFYPREAKVQWKVDNALQSGNSQESVTEQDSKDSTYSLSSTLTLSKADYEKHKVYACEVTHQGLSSPVTKSFNRGEC",0.194,0.0829

# The next lines start with the values.
Kd (Human ROBO2 Ig1-Ig2-His) [nM],IC50 [1] [nM],Binder
0.142,0.0752,"Abcs35-K (antibody, human IgG1, kappa, germlined variant of Abcs35) heavy: EVQLVQSGAEVKKPGASVKVSCKASGYTFTGYYMHWVRQAPGQGLEWMGWINPKNGDTEFPQKFQGRVTMTRDTSISTAYMELSRLRSDDTAVYYCARESGDDAFDIWGQGTMVTVSSASTKGPSVFPLAPSSKSTSGGTAALGCLVKDYFPEPVTVSWNSGALTSGVHTFPAVLQSSGLYSLSSVVTVPSSSLGTQTYICNVNHKPSNTKVDKKVEPKSCDKTHTCPPCPAPEAAGAPSVFLFPPKPKDTLMISRTPEVTCVVVDVSHEDPEVKFNWYVDGVEVHNAKTKPREEQYNSTYRVVSVLTVLHQDWLNGKEYKCKVSNKALPAPIEKTISKAKGQPREPQVYTLPPSREEMTKNQVSLTCLVKGFYPSDIAVEWESNGQPENNYKTTPPVLDSDGSFFLYSKLTVDKSRWQQGNVFSCSVMHEALHNHYTQKSLSLSPGK light: not shown"
0.131,0.0754,"Abcs35-G (antibody, human IgG1, kappa, germlined variant of Abcs35) heavy: QVQLVQSGAEVKKPGASVKVSCKASGYTFTGYYMHWVRQAPGQGLEWMGWINPKNGDTEFPQKFQGRVTMTRDTSITTAYMELSRLRSDDTAVYYCARESGDDAFDIWGQGTMVTVSSASTKGPSVFPLAPSSKSTSGGTAALGCLVKDYFPEPVTVSWNSGALTSGVHTFPAVLQSSGLYSLSSVVTVPSSSLGTQTYICNVNHKPSNTKVDKKVEPKSCDKTHTCPPCPAPEAAGAPSVFLFPPKPKDTLMISRTPEVTCVVVDVSHEDPEVKFNWYVDGVEVHNAKTKPREEQYNSTYRVVSVLTVLHQDWLNGKEYKCKVSNKALPAPIEKTISKAKGQPREPQVYTLPPSREEMTKNQVSLTCLVKGFYPSDIAVEWESNGQPENNYKTTPPVLDSDGSFFLYSKLTVDKSRWQQGNVFSCSVMHEALHNHYTQKSLSLSPGK light: DIVMTQSPSSLSASVGDRVTITCRASQSISSYLNWYQQKPGKAPKLLIYAASSLQSGVPSRFSGSGSGTDFTLTISSLQPEDFATYYCQQSVGLFFGGGTKVEIKRTVAAPSVFIFPPSDEQLKSGTASVVCLLNNFYPREAKVQWKVDNALQSGNSQESVTEQDSKDSTYSLSSTLTLSKADYEKHKVYACEVTHQGLSSPVTKSFNRGEC"
